Laboratory results published in patent US20240140995A1.

Experiments:
[1] = molecular target: T1, GthCol (Geobacillus thermoglucosidasius C-terminal Colicin DNase domain, C36A, H78A, engineered) (Geobacillus thermoglucosidasius); assay: SPR Biacore T200, 37 C, single cycle kinetics; […]; details: remark: other sources report otherwise
[2] = molecular target: T1, GthCol (Geobacillus thermoglucosidasius …); assay: SPR Biacore T200, 37 C, single cycle kinetics; details: remark: other sources report otherwise

B1: E. coli IM-7, singly biotinylated, Q03708 1-87 (protein)
chain: MELKNSISDYTEAEFVQLLKEIEKENVAATDDVLDVLLEHFVKITEHPDGTDLIYYPSDNRDDSPEGIVKEIKEWRAANGKPGFKQG
Kd [1]: 0.074 nM
MR (Molar Ratio, binding stoichiometry) [1]: 1.1
koff [1]: 9.2e-05 s⁻¹
kon [1]: 1.2e+06 M⁻¹ s⁻¹
complex half-life t/2-diss [2]: 2.1 h
